Molecular target: T1, EphA2 (Rattus norvegicus, UniProt D3ZBN3)
T1 construct: greatly elevated in MatLu and MatLyLu variants; endogenous in cells; host or cells: MatLyLu (Dunning R-3327 rat prostate cancer subline)
Experiment: EphA2 activation and ERK status in MatLyLu cells
Assay type: cell-based
Method: FIGS. 1(A-D) illustrate (A) EphA2 is the primary EphA kinase expressed on human prostate cancer cells. Cell surface proteins were labeled with membrane impermeable biotin (Method). Top panel: Saturating amount of ephrin-A1-Fc (EA1-Fc) was used to precipitate most EphA kinases. Lower panel: EphA2 was first immunodepleted from cell lysates with an EphA2-specific antibody. Saturating amount of ephrin-A1-Fc was then added to the EphA2-depleted cell lysates to precipitate other members of EphA kinases. The precipitates were subject immunoblot with HRP-labeled avidin. (B) Expression of EphA2, but not other EphA kinases and ephrin-As, is elevated in cell lines derived from more malignant prostate cancer. Total cellular proteins were immunoblotted with the indicated antibodies. (C) Immunofluorescence staining of EphA2. Human prostate cancer cells grown on cover slip were stained with anti-EphA2 antibody. Texas-Red labeled secondary was used to visualize the bound primary antibody. […] To determine the ERK activation status, total cell lysates were analyzed by immunoblot using anti-phospho ERK (p-ERK) antibody. […]
Cells cultured in 6 well plates at 70-80% confluence were stimulated with 0.5 μg/ml Fc, 1 μg/ml epnrinA1-Fc or 20 ng/ml HGF/SF or their combinations as indicated. […] For quantitative analysis, band densities were measured using KODAK 1D imagine analysis software (Eastman Kodak Company).

T1 sequence (D3ZBN3 1-977): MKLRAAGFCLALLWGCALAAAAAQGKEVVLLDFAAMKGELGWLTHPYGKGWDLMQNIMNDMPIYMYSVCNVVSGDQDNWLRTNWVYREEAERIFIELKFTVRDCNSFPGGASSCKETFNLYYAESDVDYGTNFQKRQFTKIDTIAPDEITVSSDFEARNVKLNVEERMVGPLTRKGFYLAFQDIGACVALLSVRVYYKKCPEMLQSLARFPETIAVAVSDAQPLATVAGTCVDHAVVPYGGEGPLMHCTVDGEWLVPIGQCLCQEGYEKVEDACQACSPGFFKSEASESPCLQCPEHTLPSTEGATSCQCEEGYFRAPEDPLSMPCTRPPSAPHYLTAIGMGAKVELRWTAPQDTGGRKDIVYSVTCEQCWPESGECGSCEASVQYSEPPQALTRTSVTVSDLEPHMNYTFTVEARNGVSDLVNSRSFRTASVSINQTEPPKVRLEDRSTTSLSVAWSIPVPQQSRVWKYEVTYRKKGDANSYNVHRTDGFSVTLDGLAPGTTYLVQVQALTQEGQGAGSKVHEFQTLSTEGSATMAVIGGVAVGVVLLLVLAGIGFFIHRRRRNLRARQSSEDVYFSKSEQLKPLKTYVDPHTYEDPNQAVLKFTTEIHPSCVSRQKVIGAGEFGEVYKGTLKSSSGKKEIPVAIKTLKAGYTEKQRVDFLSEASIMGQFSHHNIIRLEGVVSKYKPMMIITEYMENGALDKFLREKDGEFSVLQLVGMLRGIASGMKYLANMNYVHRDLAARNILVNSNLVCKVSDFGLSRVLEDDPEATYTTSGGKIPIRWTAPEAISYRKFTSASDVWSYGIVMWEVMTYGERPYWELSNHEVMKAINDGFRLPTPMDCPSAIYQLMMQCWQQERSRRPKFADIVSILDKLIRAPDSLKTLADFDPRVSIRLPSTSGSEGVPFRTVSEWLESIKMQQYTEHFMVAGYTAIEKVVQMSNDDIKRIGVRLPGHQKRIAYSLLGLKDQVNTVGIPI

B1: ephrin-A1-Fc: ephrin-A1 dimerized by fusion to the heavy chain of human IgG1 (protein)
chain: DRHTVFWNSSNPKFRNEDYTIHVQLNDYVDIICPHYEDHSVADAAMEQYILYLVEHEEYQLCQPQSKDQVRWQCNRPSAKHGPEKLSEKFQRFTPFTLGKEFKEGHSYYYISKPIHQHEDRCLRLKVTVSGKITHSPQAHDNPQEKRLAADDPEVRVLHSIGHS
modifications: left off: a dimerising Fc or GST
notes: ephrin-A1 dimerized by fusion to the heavy chain of human IgG1
ERK1/2 activity: reduced | EphA2 activation, time course: readily occurred in two minutes
